From the supplement of paper PMC9732359
± gives the uncertainty stated by the source.

Experiment: protein stability index of a GFP-peptide fusion (yeast GPS) (PSI 1-4); higher = more stable; sorted into four equal gates, so the index is relative within each strain
Procedure, shortened: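 For each peptide, the protein stability index sums the read frequency in every gate after multiplying it by the gate number. Read frequencies came from plasmids that were PCR-amplified from each gate and Illumina-sequenced, with reads assigned to strains by barcodes. The gates were four equal bins of GFP/Cherry fluorescence ratio applied to mid-log yeast in leucine-free medium carrying a pooled library of tiled 17-residue yeast protein peptides fused downstream of GFP on a Cherry-expressing plasmid.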

Row | Sequence | protein stability index (doa10∆) | protein stability index (pdr5∆) | protein stability index (san1∆) | protein stability index (ubr1∆)
1 | LVVYAEDNGIVKALRNV [RPL4A] | 2.1 ± 0.14 | 3.16 ± 0.12 | 2.59 ± 0.086 | 2.57 ± 0.12
2 | ILHVRAQYCYKNGLYQE [SRP72] | 2.86 ± 0.073 | 2.94 ± 0.095 | 3.1 ± 0.068 | 3.25 ± 0.057
3 | ELALKTLSKTTDSSALT [PRE9] | 2.62 ± 0.057 | 2.1 ± 0.06 | 2.54 ± 0.065 | 2.73 ± 0.043
4 | MQKQHEMKTQAAELQEK [SNF6] | 1.79 ± 0.14 | 3 ± 0.17 | 3.05 ± 0.055 | 2.54 ± 0.063
5 | GTVGNSHKTTKEDTVSW [RPL11A] | 3.07 ± 0.095 | 3.1 ± 0.095 | 3.22 ± 0.069 | 3.12 ± 0.18
6 | FLFQNINFERIDEVFSW [GRR1] | 2.36 ± 0.059 | 2.36 ± 0.071 | 2.47 ± 0.056 | 2.28 ± 0.048
7 | EVEEDDEDDDQPMISPD [SWI3] | 3.21 ± 0.099 | 3.45 ± 0.056 | 3.33 ± 0.046 | 3.15 ± 0.06
8 | ITQDGKFAYKIDKITDG [YMR129W/POM152] | 2.9 ± 0.087 | 3.03 ± 0.073 | 2.81 ± 0.063 | 2.85 ± 0.051
9 | KSMNKSAINQYNRRQDK [SNF2] | 2.26 ± 0.075 | 2.63 ± 0.082 | 2.44 ± 0.058 | 2.48 ± 0.083
10 | LPAAVSKSLQESGDTQE [RPC82] | 2.37 ± 0.096 | 2.74 ± 0.11 | 2.97 ± 0.059 | 2.83 ± 0.093
11 | YSFGGLLMRLEGNYRNL [RPB8] | 1.8 ± 0.12 | 2.55 ± 0.12 | 3.06 ± 0.17 | 2.56 ± 0.088
12 | DGHLRAPLKHGVGILYK [BRR2] | 1.31 ± 0.055 | 2.33 ± 0.08 | 1.58 ± 0.2 | 1.26 ± 0.07
13 | VVDQLWSEISNELPDIE [RPN2] | 2.38 ± 0.12 | 2.94 ± 0.1 | 2.75 ± 0.12 | 2.69 ± 0.046
14 | DDLEKTLDKKDSIPLRI [RPN9] | – | 2.3 ± 0.14 | 2.94 ± 0.11 | 2.33 ± 0.11
15 | LLFIVGQVAIKTLVYLE [YCS4] | – | 1.74 ± 0.2 | – | 3.18 ± 0.1
16 | GMTKSNIYNFSPSERIE [BRR2] | 3.18 ± 0.082 | 3.38 ± 0.082 | 3.01 ± 0.19 | 2.96 ± 0.059
17 | VASQTVKKVIEINPFLL [PRE2] | – | 3.07 ± 0.17 | 2.44 ± 0.11 | –
18 | TDQSTEEEKSVDASPND [CSL4] | 2.88 ± 0.2 | 2.8 ± 0.21 | – | 3.06 ± 0.17
19 | AQYGIKALPIRRDDEVL [RPL26A] | 3.63 ± 0.18 | 3.32 ± 0.17 | 3.43 ± 0.061 | 3.28 ± 0.14
20 | VLDVDPKYAKQKDKSDT [ISW2] | 2.91 ± 0.11 | 3.01 ± 0.069 | 3.05 ± 0.14 | 3.03 ± 0.084
21 | VHDLNKYKSNTNNMEKI [SMC2] | 3.46 ± 0.17 | 3.58 ± 0.14 | 3.02 ± 0.15 | 3.47 ± 0.24
22 | VGFGESNFTSIIGPNGS [SMC1] | 3.37 ± 0.09 | 3.34 ± 0.078 | 3.15 ± 0.047 | 3.07 ± 0.054
23 | SQTMAETYVASYVVPRL [ECM29] | 1.85 ± 0.042 | 1.82 ± 0.049 | 1.9 ± 0.069 | 2 ± 0.038
24 | DAFRVHICGICGLMTVI [RPB2] | 1.33 ± 0.084 | 1.43 ± 0.095 | 1.34 ± 0.16 | 1.43 ± 0.062
25 | RVIDDNNRRRSRKRGGE [SIR3] | 3.57 ± 0.086 | 3.36 ± 0.11 | 3.21 ± 0.11 | 3.46 ± 0.084
26 | HDFLFNTIIRDGSKMLK [RPN14] | 2.05 ± 0.11 | 2.55 ± 0.095 | 3.03 ± 0.15 | 1.38 ± 0.068
27 | HLRSNILKDLIYRGVLN [SMC1] | 1.74 ± 0.059 | 1.78 ± 0.085 | 1.8 ± 0.14 | 1.74 ± 0.056

Row | Sequence | protein stability index (doa10∆) | protein stability index (pdr5∆) | protein stability index (san1∆) | protein stability index (ubr1∆)
28 | PKKYKENNTDSARKELE [SMC1] | 2.96 ± 0.059 | 2.8 ± 0.065 | 3.09 ± 0.046 | 3.31 ± 0.057
29 | LLTSAGCKNGSFTLLNQ [NUT1] | 2.21 ± 0.12 | 2.32 ± 0.067 | 2.3 ± 0.28 | 2.68 ± 0.12
30 | DDMVEYEDGTPATTSQM [CYT1] | – | 2.76 ± 0.14 | 3.02 ± 0.19 | –
31 | FMLRKQDPKTLVALLSR [SSN2] | 1.6 ± 0.055 | 1.84 ± 0.041 | 1.85 ± 0.079 | 2.09 ± 0.043
32 | ERNEQEREIMNDHSKSA [SWI3] | 3.27 ± 0.069 | 3.33 ± 0.066 | 3.1 ± 0.092 | 3.48 ± 0.084
33 | EPFFLVTKITDMLLHKY [SRB8] | 2.86 ± 0.11 | 2.52 ± 0.088 | 2.88 ± 0.061 | 2.72 ± 0.083
34 | RTLTAVHDKILEDLVFP [RPS7A] | 3.24 ± 0.13 | 3.15 ± 0.073 | 3.28 ± 0.059 | 3.25 ± 0.098
35 | VMNTKLLQEGGSLSGNS [ESC2] | 3.27 ± 0.14 | 3.44 ± 0.14 | 3.13 ± 0.099 | 3.07 ± 0.19
36 | DVSVKMGNTKVHCRISC [RRP45] | 2.21 ± 0.14 | 2.28 ± 0.092 | 2.17 ± 0.061 | 2.09 ± 0.074
37 | DQVLVKGGEQISQLYSD [YJL041W/NSP1] | 3.18 ± 0.091 | 3.16 ± 0.082 | 3.2 ± 0.061 | 3.16 ± 0.091
38 | MKRNCGQIITLFSSRRL [RMP1] | 2.3 ± 0.045 | 2.46 ± 0.053 | 2.42 ± 0.058 | 2.29 ± 0.071
39 | DFTLIPRMASVFENYVK [CDC53] | 3.15 ± 0.091 | 2.88 ± 0.06 | 2.71 ± 0.061 | 3.13 ± 0.081
40 | DQNEFLLERTREIHNEA [FAS2] | 3.12 ± 0.092 | 3.13 ± 0.08 | 2.99 ± 0.063 | 3.08 ± 0.067
41 | SSRFIKGGSLYGLGLIY [RPN2] | 2.07 ± 0.09 | 2.1 ± 0.088 | 2.38 ± 0.061 | 1.99 ± 0.06
42 | KYLDQVLDHQRAIPFRR [RPL17B] | 2.78 ± 0.12 | 2.35 ± 0.076 | 1.87 ± 0.13 | 1.61 ± 0.066
43 | SLISTRNDSTVNDSVIS [BRN1] | 2.6 ± 0.081 | 2.81 ± 0.077 | 2.72 ± 0.06 | 2.67 ± 0.059
44 | KVLLDSKDVQQIDYKLE [RPS7A] | 2.69 ± 0.21 | 3.15 ± 0.15 | 3.31 ± 0.061 | 3.2 ± 0.12
45 | ESLQKRELLKSQVEDFT [SIR3] | 3.15 ± 0.045 | 3.22 ± 0.054 | 3.12 ± 0.048 | 3.27 ± 0.043
46 | AAIRQPTRYVLIRNVGT [POP1] | 1.64 ± 0.073 | 2.07 ± 0.083 | 1.77 ± 0.11 | 1.31 ± 0.053
47 | RILKNVSPNDNNSANNN [YMR153W/NUP53] | 2.75 ± 0.052 | 2.42 ± 0.048 | 2.29 ± 0.054 | 2.59 ± 0.044
48 | KNVETLEEKILAKKTHK [SMC4] | 2.65 ± 0.075 | 2.94 ± 0.077 | 2.79 ± 0.053 | 2.92 ± 0.11
49 | KKRRGSRIYKTIKVAGT [SNU114] | 1.6 ± 0.042 | 1.78 ± 0.045 | 1.61 ± 0.069 | 1.8 ± 0.043
50 | NPSQGVSNSGAQDEEIH [UBP6] | 2.04 ± 0.074 | 2.22 ± 0.068 | 2.04 ± 0.12 | 2.11 ± 0.059
51 | LGMGKAVEKTLALGCHF [POP7] | 1.98 ± 0.097 | 2.16 ± 0.08 | 2.6 ± 0.1 | 2.38 ± 0.088
52 | EAMMLKEEGLQQFNLHE [MED1] | 2.97 ± 0.16 | 3.26 ± 0.15 | 3.17 ± 0.12 | 2.61 ± 0.12
53 | VFVKKHHELIKVKHDSQ [SSN2] | 1.32 ± 0.07 | 1.29 ± 0.053 | 1.18 ± 0.095 | 1.35 ± 0.051
54 | KEKIKNNRQLPYLVANV [RPT5] | 2.78 ± 0.1 | 3.1 ± 0.095 | 3.11 ± 0.096 | 2.64 ± 0.081
